Consider three molecules from patent WO2018087143A2 (dated 2018).

Numbering of substitutions follows the chain as printed.

The target in assay [1] is PD-1 expressed on Jurkat cells (NFAT-luc2/PD-1 Jurkat Cells, Promega, CS187102) (UniProt Q15116 25-288, limits assumed). The experiment in a line: cell-based or functional assay.
In assay [2] the target is T1, cynomolgus monkey PD-1-rCD4 (cynomolgus monkey; rat). Briefly: SPR, ratio of KD values, Table 2.
Assay [3] has as its target T1, cynomolgus monkey PD-1-rCD4. The experiment in a line: SPR (BIAcore T100), IgG2 captured on anti-human Fc, PD-1 injected, 1:1 fit. On the technique in general: Surface plasmon resonance follows binding to a sensor surface in real time, without labels.
Assay [4] concerns the target T2, human PD-1-rCD4 (human; rat, UniProt Q15116 25-170; P05540 207-392, limits assumed).
T2 construct: Analyte in SPR
Described as above.

Assay [5] concerns the target T3, PD-1-Fc (UniProt Q15116 25-167, limits assumed).
T3 construct: not shown: Fc part, detected with anti-human IgG Fc
Briefly: competition ELISA: PD-1-Fc (0.8 nM) premixed with 1 nM antibody, added to captured PD-L1-rCD4 (competitor). For orientation: In an ELISA, binding on a coated surface is turned into a signal by an enzyme label.

Assay [6] addresses T3, PD-1-Fc. The experiment in a line: competition ELISA: PD-1-Fc (0.8 nM) premixed with 8 nM antibody, added to captured PD-L1-rCD4 (competitor).
For assay [7], the target named is T3, PD-1-Fc. The experiment in a line: competition ELISA: PD-1-Fc (0.8 nM) premixed with 0.5 nM antibody, added to captured PD-L1-rCD4 (competitor).
The target in another assay is T4, mouse PD-1 (mouse, UniProt Q02242 25-167, limits assumed).
T4 construct: also called murine PD-1
T4 sequence (looked up): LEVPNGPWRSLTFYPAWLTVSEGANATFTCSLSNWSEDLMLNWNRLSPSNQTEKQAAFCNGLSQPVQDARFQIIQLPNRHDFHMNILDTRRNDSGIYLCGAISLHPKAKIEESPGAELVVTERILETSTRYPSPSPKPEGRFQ
Briefly: SPR (BIAcore T100), IgG2 captured on anti-human Fc, PD-1 injected, 1:1 fit.

The target of assay [8] is T2, human PD-1-rCD4. Briefly: SPR (BIAcore T100), IgG2 captured on anti-human Fc, PD-1 injected, 1:1 fit; Table 1 prints 3.8.
Assay [9] concerns the target T1, cynomolgus monkey PD-1-rCD4. Briefly: SPR (BIAcore T100), IgG2 captured on anti-human Fc, PD-1 injected, 1:1 fit; Table 1 prints 8.7.

As a reminder, the Kd is the constant that tells how readily two partners part at equilibrium. What is called koff is the first-order rate constant of dissociation. A word on the kon: it is the second-order rate constant of association.

T1 sequence (P05540 207-392): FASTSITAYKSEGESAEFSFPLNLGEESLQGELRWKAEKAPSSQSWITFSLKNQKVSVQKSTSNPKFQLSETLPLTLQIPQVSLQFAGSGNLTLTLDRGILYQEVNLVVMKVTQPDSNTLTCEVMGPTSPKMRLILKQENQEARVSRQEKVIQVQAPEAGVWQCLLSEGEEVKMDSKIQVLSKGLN
T2 sequence (Q15116 other isoform, or with tags, fused parts or gaps limits assumed): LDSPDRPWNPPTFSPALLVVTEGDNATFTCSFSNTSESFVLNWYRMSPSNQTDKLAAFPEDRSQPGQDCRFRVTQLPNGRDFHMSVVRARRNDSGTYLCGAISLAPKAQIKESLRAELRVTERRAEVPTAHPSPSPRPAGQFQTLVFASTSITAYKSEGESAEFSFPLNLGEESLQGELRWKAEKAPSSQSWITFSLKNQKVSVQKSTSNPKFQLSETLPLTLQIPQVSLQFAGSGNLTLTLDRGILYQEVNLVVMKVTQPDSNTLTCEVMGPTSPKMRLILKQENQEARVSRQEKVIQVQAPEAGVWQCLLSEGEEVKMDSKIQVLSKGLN
T3 sequence (Q15116 25-167 limits assumed): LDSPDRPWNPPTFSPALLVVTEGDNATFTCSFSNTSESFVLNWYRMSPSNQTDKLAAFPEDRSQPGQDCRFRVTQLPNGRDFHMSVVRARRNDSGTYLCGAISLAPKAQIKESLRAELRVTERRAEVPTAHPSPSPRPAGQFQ
Sequence of PD-1 expressed on Jurkat cells (NFAT-luc2/PD-1 Jurkat Cells, Promega, CS187102) (Q15116 25-288 limits assumed): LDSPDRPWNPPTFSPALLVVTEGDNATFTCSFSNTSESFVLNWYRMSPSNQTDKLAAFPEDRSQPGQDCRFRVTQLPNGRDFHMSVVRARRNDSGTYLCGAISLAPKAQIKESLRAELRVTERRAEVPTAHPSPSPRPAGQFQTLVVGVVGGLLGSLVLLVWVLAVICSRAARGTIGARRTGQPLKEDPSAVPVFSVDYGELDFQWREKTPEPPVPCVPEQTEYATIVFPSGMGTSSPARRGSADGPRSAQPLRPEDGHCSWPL

B1: 273_C01_A12 (antibody, human IgG2, kappa, V domains shown)
VH: EVQLVQSGAEVKKPGSSVKVSCKASGYTFTSYYVHWVRQAPGQGLEWMGGIIPIFGTANYAQKFQGRVTITADESISTAYMELSSLRSEDTAVYYCARDLHGYSYGYPGYWGQGTLVTVSS
VL: DIVMTQSPLSLPVTLGQPASISCRSSQSLVYSDANTYLNWFQQRPGQSPRRLIYEVSNRESGVPDRFSGSGSATDFTLKISRVEAEDVGVYYCMQGTQLPLTFGGGTKVEIKR
Take B1: in assay [1], the “EC50, NFAT-luciferase reporter activity (PD-1/PD-L1 cell reporter assay)” value is 11.7 nM. Further, the “Fold Difference (Kd on cynomolgus PD-1 against Kd on human PD-1)” value in [2] stood at 2.1 fold. Further, the Kd turned out to be 21 nM in assay [3] and 10 nM in the assay with human PD-1-rCD4 [4]. Further, the koff in assay [3] was 0.0115 s⁻¹; in the assay with human PD-1-rCD4 [4], 0.0061 s⁻¹. For the same molecule, the kon in assay [3] was 548000 M⁻¹ s⁻¹; in the assay with human PD-1-rCD4 [4], 606000 M⁻¹ s⁻¹. The “% inhibition of the PD-1/PD-L1 interaction” value with PD-1-Fc [5] was roughly 99%; in the assay with PD-1-Fc [6], 99%; with PD-1-Fc [7], roughly 75%.

B2: 273_C12_C05 (original clone) (antibody, human IgG2, kappa, V domains shown)
VH: B1 VH with I76T
VL: B1 VL with S32H, A34G, E60D, A73D, T97A, Q98Y, L99R, G105Q
Take B2: the “EC50, NFAT-luciferase reporter activity (PD-1/PD-L1 cell reporter assay)” value in assay [1] was determined as 9.35 nM. The “Fold Difference (Kd on cynomolgus PD-1 against Kd on human PD-1)” value in assay [2] was 2.29 fold. Further, the Kd in [3] turned out to be 8.7 nM; with human PD-1-rCD4 [4] it was 3.8 nM; with mouse PD-1, 6400 nM; with human PD-1-rCD4 [8], 3.84 nM; in assay [9] it was 8.77 nM. The koff in [3] was found to be 0.0034 s⁻¹; with human PD-1-rCD4 [4], 0.0015 s⁻¹; in the assay with mouse PD-1 it was 0.00357 s⁻¹. The kon in [3] was determined as 387000 M⁻¹ s⁻¹; in the assay with human PD-1-rCD4 [4], 392000 M⁻¹ s⁻¹. In addition, the “% inhibition of the PD-1/PD-L1 interaction” value with PD-1-Fc [5] is roughly 99%; with PD-1-Fc [6], 99%; in the assay with PD-1-Fc [7], roughly 75%.

B3: Nivolumab (IgG2 format, as used in the experiments of the filing) (antibody, V domains shown)
VH: QVQLVESGGGVVQPGRSLRLDCKASGITFSNSGMHWVRQAPGKGLEWVAVIWYDGSKRYYADSVKGRFTISRDNSKNTLFLQMNSLRAEDTAVYYCATNDDYWGQGTLVTVSS
VL: EIVLTQSPATLSLSPGERATLSCRASQSVSSYLAWYQQKPGQAPRLLIYDASNRATGIPARFSGSGSGTDFTLTISSLEPEDFAVYYCQQSSNWPRTFGQGTKVEIKR
Regarding B3, the affinity in assay [3], expressed as Kd, was 5.22 nM.
